Data on one substance can be found in paper PMC10173608.

By stoichiometry N is commonly meant a count of units in the complex or per binding partner.

The target in this assay is GFP-tagged TDP-43-ΔNLS-KQ (GFP-TDP43-ΔNLS-K145Q, pTX066) (human) (UniProt Q13148). The assay is described as follows: non-reducing SDS-PAGE and immunoblot of immunoprecipitated aggregates. Background: In western blotting, separated proteins are transferred to a membrane and probed.

Several values for one entry are separate records, joined by “and”; a condition that tells them apart may be missing. Identical values can stand only once.

With “GFP-tagged TDP-43-ΔNLS-KQ (GFP-TDP43-ΔNLS-K145Q, pTX066) (from UniProt Q13148 1-414) (natural protein)”, the stoichiometry N is 2 and 4.
